From the RNAGym collection of RNA variant scans (doi:10.7554/elife.80360)

B1: HDV Ribozyme (parent)
chain: GGCCGGCAUGGUCCCAGCCUCCUCGCUGGCGCCGGCUGGGCAACAUUCCGAGGGGACCGUCCCCUCGGUAAUGGCGAAUGGGACCCA

Variants of: B1
Assay: self-cleavage, relative activity (ratio to wild type); higher = more cleavage; co-transcriptional

| Variant | self-cleavage |
| --- | --- |
| A42U A77G | 0.464 |
| G10A C85A | 1.09 |
| U60A C64U | 1.13 |
| U20G U60G | 0.0831 |
| A16C G81C | 0.346 |
| G40C C44U | 0.0627 |
| A8U C30G | 0.0369 |
| G40C U79C | 0.0509 |
| U9A A43C | 0.447 |
| G1A G81C | 0.269 |
| U20C A51G | 0 |
| A78C A83G | 0.179 |
| U46G U72G | 0.623 |
| G73U G76A | 0.208 |
| A43C U69A | 0.532 |
| C32U A77C | 0.162 |
| G10A G34C | 0.227 |
| G6C C58A | 0.308 |
| C15U G59U | 0.895 |
| A45C G73A | 0.528 |
| A43G U65G | 0.575 |
| C14A C30U | 0.143 |
| A42C G54A | 0.271 |
| U69G C75A | 0.107 |

| Variant | self-cleavage |
| --- | --- |
| C4U A43C | 0.578 |
| C18A A83G | 0.0443 |
| C22G G67U | 0.0519 |
| C19A U46G | 0.0386 |
| C7G U46G | 0 |
| G39C C66U | 0.136 |
| C18A G38U | 0.0652 |
| G1C G29U | 0.142 |
| C48G C62A | 0.35 |
| G17U C21A | 0.0339 |
| U37A G55U | 0.0723 |
| U72G C85A | 0.653 |
| C24U G35A | 0.372 |
| U12A U72A | 0.0831 |
| C57G C64G | 0.849 |
| C15G G31A | 0.138 |
| C13G A77U | 0.119 |
| A56U G73C | 0.698 |
| A45U C61G | 0.815 |
| G10U C30A | 0.158 |
| C66U G67C | 1.16 |
| G10C G52A | 0.746 |
| A45C G74A | 0.354 |
| C57U | 0.993 |

| Variant | self-cleavage |
| --- | --- |
| C63A G80U | 0.2 |
| G59A C62U | 1.22 |
| G29U C85G | 0 |
| A16U G73A | 0.222 |
| G6C U79G | 0 |
| A45C U46A | 0.499 |
| C75U C86U | 0.0563 |
| A83U C86A | 0.708 |
| C15A G82U | 0.232 |
| C7U C63U | 0.918 |
| C18G G54U | 0.0563 |
| A51C C62G | 0.151 |
| G10C C49U | 0.89 |
| G10A U20G | 0.0791 |
| C15U G81A | 0.554 |
| A16U A51C | 0.923 |
| G25C A51U | 0.148 |
| C66A G67A | 0.864 |
| C18G C63A | 0.145 |
| U12G A43G | 0.237 |
| C3G G10C | 0.151 |
| U69C C84A | 1.09 |
| G76C G80U | 0.256 |
| A43C C84A | 0.332 |

| Variant | self-cleavage |
| --- | --- |
| C26G G52U | 0.671 |
| C75A A87G | 0.251 |
| C48U G82C | 0.196 |
| A51G A77C | 0.322 |
| C26G C84A | 1.09 |
| C7A G67C | 0.302 |
| G80C C84U | 0.16 |
| G34A G38A | 0.0583 |
| A71G G74A | 0.4 |
| C24U A56U | 0.401 |
| G39C G40U | 0.487 |
| G59U A83G | 0.732 |
| C26G U65G | 1.09 |
| G54A G59A | 1.01 |
| C48A C66A | 0.92 |
| G31U U69A | 0.511 |
| U79C A83G | 0.253 |
| C44U C84U | 0.516 |
| C18A U23A | 0.122 |
| C3G G80C | 0.0665 |
| G25C C33A | 0 |
| U12G C86U | 0.403 |
| A45G G80U | 0.151 |
| G5A U79C | 0.0252 |

| Variant | self-cleavage |
| --- | --- |
| C3U G50U | 0.728 |
| U27G C41A | 0.969 |
| C13A C49G | 0.0326 |
| U37C A87G | 1.09 |
| C3G G50U | 0.665 |
| G52A C84G | 0.764 |
| C32U G81C | 0.248 |
| A8G A42C | 0.0573 |
| C3U G31C | 0.168 |
| G2A C86G | 0.0755 |
| U60G U72A | 0.458 |
| C18G G31U | 0.0396 |
| C19A C21U | 0.134 |
| G55C G73C | 0.479 |
| U20A C49G | 0.128 |
| A43G G74A | 0.724 |
| A8G U47A | 1.05 |
| U47G C85A | 0.959 |
| C58G C61U | 0.851 |
| C19G A71C | 0.0665 |
| G17C G31C | 0.0475 |
| C4A G29U | 0 |
| C22U C33G | 0.163 |
| G10C C57G | 0.81 |

| Variant | self-cleavage |
| --- | --- |
| G1C G34A | 0.0405 |
| G31C A71U | 0.172 |
| G10A G67A | 0.66 |
| C26G G53C | 0.73 |
| C36A C63A | 0.237 |
| U9C C41A | 1.19 |
| U12A A83U | 0.674 |
| U27A A43U | 0.401 |
| U37A C84G | 0.151 |
| A43G G76A | 0.391 |
| G40A A51C | 0.984 |
| C15G C49U | 0.554 |
| G29C C64U | 0.0594 |
| G55C A71G | 0.912 |
| C14A C84A | 0.458 |
| C32U G35C | 0.0573 |
| G25C G80A | 0.0744 |
| A43G A78G | 0.119 |
| A45C C64G | 0.649 |
| C14G A56G | 0.646 |
| C15A C19G | 0.0519 |
| G29U G73C | 0.185 |
| A42C G76U | 0.734 |
| G17C G35C | 0.0437 |

| Variant | self-cleavage |
| --- | --- |
| C3G G82U | 0.166 |
| U27C U69A | 0.317 |
| C15U C62G | 0.851 |
| C22A C30A | 0.0405 |
| G38C U60C | 0.231 |
| U47G A87U | 0.974 |
| G11U U20A | 0.0252 |
| G67A | 0.967 |
| G5U C7A | 0.566 |
| C58A C66G | 1.25 |
| G17C G38C | 0.0831 |
| G25U A51U | 0.237 |
| G10U G28C | 0.0941 |
| C4G U46G | 0 |
| A45U A87G | 0.737 |
| G73A A77U | 0.189 |
| C64G C84U | 0.831 |
| C48U A78C | 0.115 |
| G28A C48G | 0 |
| U60G A77G | 1.09 |
| C64U C85G | 0.851 |
| C15U G54U | 0.901 |
| C64U A77U | 0.674 |
